Test results: patent US20200405852A1 (BIOVERATIV USA, published 2020)

T1: activated human complement C1s (human, UniProt P09871 16-688)
T1 construct: also called aC1s; active C1s
T1 sequence: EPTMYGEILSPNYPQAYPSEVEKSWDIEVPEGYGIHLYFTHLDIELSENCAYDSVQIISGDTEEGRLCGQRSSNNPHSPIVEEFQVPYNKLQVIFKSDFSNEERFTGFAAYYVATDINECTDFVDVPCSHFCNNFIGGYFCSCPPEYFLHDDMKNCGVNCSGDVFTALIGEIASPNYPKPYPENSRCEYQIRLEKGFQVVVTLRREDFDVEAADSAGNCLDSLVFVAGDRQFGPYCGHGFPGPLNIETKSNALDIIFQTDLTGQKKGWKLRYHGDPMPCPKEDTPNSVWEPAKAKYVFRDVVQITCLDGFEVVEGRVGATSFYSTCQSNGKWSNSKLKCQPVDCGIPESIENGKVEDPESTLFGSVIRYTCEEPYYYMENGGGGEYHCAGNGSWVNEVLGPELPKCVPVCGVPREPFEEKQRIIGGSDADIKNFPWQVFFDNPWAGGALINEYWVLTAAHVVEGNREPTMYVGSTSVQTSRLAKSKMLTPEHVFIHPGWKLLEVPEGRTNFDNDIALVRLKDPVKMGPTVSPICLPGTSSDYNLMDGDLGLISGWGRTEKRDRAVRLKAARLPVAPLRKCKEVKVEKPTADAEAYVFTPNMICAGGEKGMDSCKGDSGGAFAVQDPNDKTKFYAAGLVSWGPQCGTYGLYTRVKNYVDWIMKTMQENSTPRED


How the values were obtained:
[1] = target: T1, activated human complement C1s; test: competition binding to active C1s; competitor 50 pM biotinylated TNT005 (Biot-005)
Description: All 15 combinations (VH variant 1+Vk variant 1; VH variant 1+Vk variant 2; VH variant 1+Vk variant 5; VH variant 2+Vk variant 1; VH variant 2+Vk variant 2; VH variant 2+Vk variant 5; VH variant 3+Vk variant 1; VH variant 3+Vk variant 2; VH variant 3+Vk variant 5; VH variant 4+Vk variant 1; VH variant 4+Vk variant 2; VH variant 4+Vk variant 5; VH variant 5+Vk variant 1; VH variant 5+Vk variant 2; VH variant 5+Vk variant 5) were produced. Each humanized variant was tested for the ability to compete with biotinylated TNT005 for binding to active C1s.

[2] = target: T1, activated human complement C1s; test: cell-based or functional assay
[3] = target: T1, activated human complement C1s; test: direct binding of antibody to activated C1s (aC1s); assay format not stated
[4] = target: T1, activated human complement C1s; test: kinetic characterization of binding to active human C1s; instrument not stated
[5] = target: T1, activated human complement C1s; test: kinetic characterization of binding to active human C1s; instrument not stated; column head kdis

Row | Binder | IC50 [1] [pM] | IC50 of classical complement pathway inhibition (commercial CP activation assay) [2] [pM] | EC50 [3] [pM] | Kd [4] [pM] | kon [4] [M⁻¹ s⁻¹] | koff [5] [s⁻¹]
1 | TNT005.001 (antibody, V domains shown, Unlabelled parental antibody; also called parental TNT005 (not biotinylated)) VH: EVQLQQSGAELVRPGASVKLSCTASGFNIKDDYIHWVKQRPEQGLEWIGRIDPADGHTKYAPKFQVKATITADTSSNTAYLQLSSLTSEDTAVYYCARYGYGREVFDYWGQGTTLTVSS VL: DIVLTQSPASLAVSLGQRATISCKASQSVDYDGDSYMNWYQQKTGQPPKILIYDASNLESGIPARFSGSGSGTDFTLNIHPVEEEDAAIYYCQQSNEDPWTFGGGTKLEIK | 39.5 | 1060 | 55.9 | – | – | –
2 | humanized TNT005 variant VH variant 3+Vk variant 2 (antibody, V domains shown, also called VH variant 3 + VL variant 2) VH: QVQLVQSGAEVKKPGASVKLSCTASGFNIKDDYIHWVKQAPGQGLEWIGRIDPADGHTKYAPKFQVKVTITADTSTSTAYLELSSLRSEDTAVYYCARYGYGREVFDYWGQGTTVTVSS VL: DIVLTQSPDSLAVSLGERATISCKASQSVDYDGDSYMNWYQQKPGQPPKILIYDASNLESGIPARFSGSGSGTDFTLTISSLEPEDFAIYYCQQSNEDPWTFGGGTKVEIK | 183 | 1260 | 163 | 585 | 838000 | 0.00049
3 | biotinylated TNT005 (antibody, V domains shown, Parental antibody; also called Biot-005; parental TNT005) VH: EVQLQQSGAELVRPGASVKLSCTASGFNIKDDYIHWVKQRPEQGLEWIGRIDPADGHTKYAPKFQVKATITADTSSNTAYLQLSSLTSEDTAVYYCARYGYGREVFDYWGQGTTLTVSS VL: DIVLTQSPASLAVSLGQRATISCKASQSVDYDGDSYMNWYQQKTGQPPKILIYDASNLESGIPARFSGSGSGTDFTLNIHPVEEEDAAIYYCQQSNEDPWTFGGGTKLEIK | – | – | 82.8 | – | – | –
4 | humanized TNT005 variant VH variant 1+Vk variant 5 (antibody, V domains shown, also called VH variant 1 + VL variant 5) VH: EVQLVQSGAELKKPGASVKLSCTASGFNIKDDYIHWVKQAPGQGLEWIGRIDPADGHTKYAPKFQVKATITADTSTNTAYLQLSSLTSEDTAVYYCARYGYGREVFDYWGQGTTVTVSS VL: DIVLTQSPDSLAVSLGERATISCKASQSVDYDGDSYMNWYQQKPGQPPKLLIYDASNLESGIPARFSGSGSGTDFTLTISSLEPEDFAVYYCQQSNEDPWTFGGGTKVEIK | 129 | 1260 | 107 | 217 | 776000 | 0.000168
5 | humanized TNT005 variant VH variant 5+Vk variant 5 (antibody, V domains shown, also called VH variant 5 + VL variant 5) VH: QVQLVQSGAEVKKPGASVKVSCAASGFNIKDDYIHWVRQAPGQGLEWIGRIDPADGHTKYAPKFQVKVTITADTSTSTAYMELSSLRSEDTAVYYCARYGYGREVFDYWGQGTTVTVSS VL: DIVLTQSPDSLAVSLGERATISCKASQSVDYDGDSYMNWYQQKPGQPPKLLIYDASNLESGIPARFSGSGSGTDFTLTISSLEPEDFAVYYCQQSNEDPWTFGGGTKVEIK | 137 | 1330 | 165 | – | – | –
6 | humanized TNT005 variant VH variant 2+Vk variant 1 (antibody, V domains shown, also called VH variant 2 + VL variant 1) VH: EVQLVQSGAEVKKPGASVKLSCTASGFNIKDDYIHWVKQAPGQGLEWIGRIDPADGHTKYAPKFQVKATITADTSTNTAYLELSSLRSEDTAVYYCARYGYGREVFDYWGQGTTVTVSS VL: DIVLTQSPDSLAVSLGERATISCKASQSVDYDGDSYMNWYQQKTGQPPKILIYDASNLESGIPARFSGSGSGTDFTLTISSLEEEDFAIYYCQQSNEDPWTFGGGTKVEIK | 144 | 1230 | 137 | 251 | 829000 | 0.000208
7 | humanized TNT005 variant VH variant 3+Vk variant 1 (antibody, V domains shown, also called VH variant 3 + VL variant 1) VH: QVQLVQSGAEVKKPGASVKLSCTASGFNIKDDYIHWVKQAPGQGLEWIGRIDPADGHTKYAPKFQVKVTITADTSTSTAYLELSSLRSEDTAVYYCARYGYGREVFDYWGQGTTVTVSS VL: DIVLTQSPDSLAVSLGERATISCKASQSVDYDGDSYMNWYQQKTGQPPKILIYDASNLESGIPARFSGSGSGTDFTLTISSLEEEDFAIYYCQQSNEDPWTFGGGTKVEIK | 179 | 1270 | 168 | – | – | –
8 | humanized TNT005 variant VH variant 4+Vk variant 1 (antibody, V domains shown, also called VH variant 4 + VL variant 1) VH: QVQLVQSGAEVKKPGASVKVSCTASGFNIKDDYIHWVRQAPGQGLEWIGRIDPADGHTKYAPKFQVKVTITADTSTSTAYMELSSLRSEDTAVYYCARYGYGREVFDYWGQGTTVTVSS VL: DIVLTQSPDSLAVSLGERATISCKASQSVDYDGDSYMNWYQQKTGQPPKILIYDASNLESGIPARFSGSGSGTDFTLTISSLEEEDFAIYYCQQSNEDPWTFGGGTKVEIK | 152 | 1350 | 152 | – | – | –
9 | humanized TNT005 variant VH variant 1+Vk variant 2 (antibody, V domains shown, also called VH variant 1 + VL variant 2) VH: EVQLVQSGAELKKPGASVKLSCTASGFNIKDDYIHWVKQAPGQGLEWIGRIDPADGHTKYAPKFQVKATITADTSTNTAYLQLSSLTSEDTAVYYCARYGYGREVFDYWGQGTTVTVSS VL: DIVLTQSPDSLAVSLGERATISCKASQSVDYDGDSYMNWYQQKPGQPPKILIYDASNLESGIPARFSGSGSGTDFTLTISSLEPEDFAIYYCQQSNEDPWTFGGGTKVEIK | 55.7 | 1140 | 88 | 208 | 818000 | 0.00017
10 | humanized TNT005 variant VH variant 5+Vk variant 2 (antibody, V domains shown, also called VH variant 5 + VL variant 2) VH: QVQLVQSGAEVKKPGASVKVSCAASGFNIKDDYIHWVRQAPGQGLEWIGRIDPADGHTKYAPKFQVKVTITADTSTSTAYMELSSLRSEDTAVYYCARYGYGREVFDYWGQGTTVTVSS VL: DIVLTQSPDSLAVSLGERATISCKASQSVDYDGDSYMNWYQQKPGQPPKILIYDASNLESGIPARFSGSGSGTDFTLTISSLEPEDFAIYYCQQSNEDPWTFGGGTKVEIK | 148 | 1310 | 164 | – | – | –
11 | humanized TNT005 variant VH variant 3+Vk variant 5 (antibody, V domains shown, also called VH variant 3 + VL variant 5) VH: QVQLVQSGAEVKKPGASVKLSCTASGFNIKDDYIHWVKQAPGQGLEWIGRIDPADGHTKYAPKFQVKVTITADTSTSTAYLELSSLRSEDTAVYYCARYGYGREVFDYWGQGTTVTVSS VL: DIVLTQSPDSLAVSLGERATISCKASQSVDYDGDSYMNWYQQKPGQPPKLLIYDASNLESGIPARFSGSGSGTDFTLTISSLEPEDFAVYYCQQSNEDPWTFGGGTKVEIK | 158 | 1380 | 138 | – | – | –
12 | humanized TNT005 variant VH variant 4+Vk variant 5 (antibody, V domains shown, also called VH variant 4 + VL variant 5) VH: QVQLVQSGAEVKKPGASVKVSCTASGFNIKDDYIHWVRQAPGQGLEWIGRIDPADGHTKYAPKFQVKVTITADTSTSTAYMELSSLRSEDTAVYYCARYGYGREVFDYWGQGTTVTVSS VL: DIVLTQSPDSLAVSLGERATISCKASQSVDYDGDSYMNWYQQKPGQPPKLLIYDASNLESGIPARFSGSGSGTDFTLTISSLEPEDFAVYYCQQSNEDPWTFGGGTKVEIK | 156 | 1540 | 205 | – | – | –
13 | humanized TNT005 variant VH variant 4+Vk variant 2 (antibody, V domains shown, also called VH variant 4 + VL variant 2) VH: QVQLVQSGAEVKKPGASVKVSCTASGFNIKDDYIHWVRQAPGQGLEWIGRIDPADGHTKYAPKFQVKVTITADTSTSTAYMELSSLRSEDTAVYYCARYGYGREVFDYWGQGTTVTVSS VL: DIVLTQSPDSLAVSLGERATISCKASQSVDYDGDSYMNWYQQKPGQPPKILIYDASNLESGIPARFSGSGSGTDFTLTISSLEPEDFAIYYCQQSNEDPWTFGGGTKVEIK | 158 | 1310 | 119 | – | – | –
14 | humanized TNT005 variant VH variant 1+Vk variant 1 (antibody, V domains shown, also called VH variant 1 + VL variant 1) VH: EVQLVQSGAELKKPGASVKLSCTASGFNIKDDYIHWVKQAPGQGLEWIGRIDPADGHTKYAPKFQVKATITADTSTNTAYLQLSSLTSEDTAVYYCARYGYGREVFDYWGQGTTVTVSS VL: DIVLTQSPDSLAVSLGERATISCKASQSVDYDGDSYMNWYQQKTGQPPKILIYDASNLESGIPARFSGSGSGTDFTLTISSLEEEDFAIYYCQQSNEDPWTFGGGTKVEIK | 124 | 1200 | 201 | 228 | 864000 | 0.000197
